Test results reported in patent US20240261333A1, “NOVEL TARGETS FOR ENHANCING ANTI-TUMOR IMMUNITY” (THE BROAD INSTITUTE, INC., priority 2021, published 2024).

Columns and labels:
[1] = target: T1, SERBP1 (human) (UniProt Q8NC51); assay: co-IP, IgG control, lysate of cells with C-FLAG B3GNT2; mass spectrometry
T1 sequence (looked up): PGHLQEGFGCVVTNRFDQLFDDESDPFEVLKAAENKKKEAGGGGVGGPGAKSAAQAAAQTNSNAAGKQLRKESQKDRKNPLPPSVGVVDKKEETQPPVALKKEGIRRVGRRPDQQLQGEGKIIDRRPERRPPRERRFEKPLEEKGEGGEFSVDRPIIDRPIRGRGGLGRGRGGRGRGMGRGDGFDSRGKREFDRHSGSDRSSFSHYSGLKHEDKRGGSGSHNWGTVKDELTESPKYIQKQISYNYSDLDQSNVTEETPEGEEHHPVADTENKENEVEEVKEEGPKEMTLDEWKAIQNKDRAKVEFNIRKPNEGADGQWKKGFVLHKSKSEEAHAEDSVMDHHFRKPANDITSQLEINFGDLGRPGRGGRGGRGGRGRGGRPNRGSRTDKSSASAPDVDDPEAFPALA

[2] = target: ACTR3 (UniProt P61158); assay: co-IP with mouse IgG control, mass spectrometry; lysate of C-FLAG B3GNT2 cells
[3] = target: AHNAK (UniProt Q09666); assay: as above
[4] = target: ATP5F1B (UniProt P06576); assay: as above
[5] = target: ATXN2L (UniProt Q8WWM7); assay: as above
[6] = target: CTSD (UniProt P07339); assay: as above
[7] = target: EEF1A1 (UniProt P68104); assay: as above
[8] = target: ENO1 (UniProt P06733); assay: as above
[9] = target: HBA1 (UniProt P69905); assay: as above
[10] = target: HNRNPF (UniProt P52597); assay: as above
[11] = target: LTF (UniProt P02788); assay: as above
[12] = target: LYZ (UniProt P61626); assay: as above
[13] = target: PPIA (UniProt P62937); assay: as above
[14] = target: RCC2 (UniProt Q9P258); assay: as above
[15] = target: RPL11 (UniProt P62913); assay: as above
[16] = target: RPL21 (UniProt P46778); assay: as above
[17] = target: RPL31 (UniProt P62899); assay: as above
[18] = target: RPL35A (UniProt P18077); assay: as above
[19] = target: RPL36 (UniProt Q9Y3U8); assay: as above
[20] = target: RPL36A (UniProt P83881); assay: as above
[21] = target: RPLP2 (UniProt P05387); assay: as above
[22] = target: RPN1 (UniProt P04843); assay: as above
[23] = target: RPS11 (UniProt P62280); assay: as above
[24] = target: RPS15A (UniProt P62244); assay: as above
[25] = target: RPS17 (UniProt P08708); assay: as above
[26] = target: S100A8 (UniProt P05109); assay: as above
[27] = target: SLIRP (UniProt Q9GZT3); assay: as above
[28] = target: SPRR2E (UniProt P22531); assay: as above
[29] = target: SSR1 (UniProt P43307); assay: as above
[30] = target: STRAP (UniProt Q9Y3F4); assay: as above
[31] = target: TPI1 (UniProt P60174); assay: as above
[32] = target: UBA52 (UniProt P62987); assay: as above
[33] = target: YBX3 (UniProt P16989); assay: as above
[34] = target: YWHAZ (UniProt P63104); assay: as above
Sequence of YWHAZ (P63104 whole entry): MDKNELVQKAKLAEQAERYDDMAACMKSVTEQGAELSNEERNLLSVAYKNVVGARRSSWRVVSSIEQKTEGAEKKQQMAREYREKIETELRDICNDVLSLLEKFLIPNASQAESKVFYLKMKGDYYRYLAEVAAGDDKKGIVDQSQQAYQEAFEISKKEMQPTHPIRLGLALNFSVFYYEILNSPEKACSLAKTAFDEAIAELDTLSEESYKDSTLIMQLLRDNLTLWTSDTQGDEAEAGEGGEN

Sequence of YBX3 (P16989 2-372 limits assumed): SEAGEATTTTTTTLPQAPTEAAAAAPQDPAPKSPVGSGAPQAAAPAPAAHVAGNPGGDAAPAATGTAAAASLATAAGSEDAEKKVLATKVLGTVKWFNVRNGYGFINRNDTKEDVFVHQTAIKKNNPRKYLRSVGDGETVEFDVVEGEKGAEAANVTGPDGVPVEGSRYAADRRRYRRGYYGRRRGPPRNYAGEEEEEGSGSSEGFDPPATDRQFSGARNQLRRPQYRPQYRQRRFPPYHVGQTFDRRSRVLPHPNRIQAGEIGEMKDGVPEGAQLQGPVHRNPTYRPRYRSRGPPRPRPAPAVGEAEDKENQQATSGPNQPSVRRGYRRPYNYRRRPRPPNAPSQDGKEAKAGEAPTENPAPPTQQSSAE
Sequence of RPLP2 (P05387 whole entry): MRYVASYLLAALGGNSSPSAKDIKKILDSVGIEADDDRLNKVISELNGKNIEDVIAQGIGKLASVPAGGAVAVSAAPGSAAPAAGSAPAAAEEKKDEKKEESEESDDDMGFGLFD
Sequence of ATP5F1B (P06576 48-529 limits assumed): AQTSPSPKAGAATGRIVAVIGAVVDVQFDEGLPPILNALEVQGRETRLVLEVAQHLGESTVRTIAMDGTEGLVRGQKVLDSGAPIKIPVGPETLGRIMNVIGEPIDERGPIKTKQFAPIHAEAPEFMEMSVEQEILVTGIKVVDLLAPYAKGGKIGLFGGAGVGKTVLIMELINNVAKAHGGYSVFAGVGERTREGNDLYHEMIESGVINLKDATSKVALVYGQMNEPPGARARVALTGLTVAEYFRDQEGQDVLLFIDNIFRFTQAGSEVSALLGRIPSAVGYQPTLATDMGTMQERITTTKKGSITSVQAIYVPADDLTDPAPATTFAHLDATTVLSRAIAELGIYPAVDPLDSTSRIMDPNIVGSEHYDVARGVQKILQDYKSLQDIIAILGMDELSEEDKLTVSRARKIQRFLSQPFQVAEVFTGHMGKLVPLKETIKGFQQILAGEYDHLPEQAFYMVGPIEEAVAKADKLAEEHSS
Sequence of HNRNPF (P52597 2-415 limits assumed): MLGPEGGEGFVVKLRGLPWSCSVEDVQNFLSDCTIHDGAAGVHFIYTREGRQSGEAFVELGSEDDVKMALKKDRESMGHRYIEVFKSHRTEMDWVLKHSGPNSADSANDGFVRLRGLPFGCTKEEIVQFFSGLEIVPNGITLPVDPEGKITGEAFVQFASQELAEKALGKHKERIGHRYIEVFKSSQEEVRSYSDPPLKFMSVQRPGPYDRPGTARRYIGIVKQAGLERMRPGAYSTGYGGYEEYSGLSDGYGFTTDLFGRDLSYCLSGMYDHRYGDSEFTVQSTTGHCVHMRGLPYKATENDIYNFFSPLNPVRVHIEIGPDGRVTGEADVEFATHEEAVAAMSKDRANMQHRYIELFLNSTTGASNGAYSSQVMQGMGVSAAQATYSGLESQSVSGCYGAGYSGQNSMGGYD
Sequence of SPRR2E (P22531 whole entry): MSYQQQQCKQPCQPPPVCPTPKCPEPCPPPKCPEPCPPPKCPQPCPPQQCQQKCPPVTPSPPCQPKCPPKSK
Sequence of SSR1 (P43307 19-286 limits assumed): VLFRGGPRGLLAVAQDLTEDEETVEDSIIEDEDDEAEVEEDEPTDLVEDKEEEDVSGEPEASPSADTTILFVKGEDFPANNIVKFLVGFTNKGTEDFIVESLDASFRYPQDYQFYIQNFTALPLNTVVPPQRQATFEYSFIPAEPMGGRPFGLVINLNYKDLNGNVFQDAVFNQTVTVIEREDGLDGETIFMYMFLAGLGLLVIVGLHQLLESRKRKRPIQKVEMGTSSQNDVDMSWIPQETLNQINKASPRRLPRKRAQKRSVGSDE
Sequence of EEF1A1 (P68104 2-462 limits assumed): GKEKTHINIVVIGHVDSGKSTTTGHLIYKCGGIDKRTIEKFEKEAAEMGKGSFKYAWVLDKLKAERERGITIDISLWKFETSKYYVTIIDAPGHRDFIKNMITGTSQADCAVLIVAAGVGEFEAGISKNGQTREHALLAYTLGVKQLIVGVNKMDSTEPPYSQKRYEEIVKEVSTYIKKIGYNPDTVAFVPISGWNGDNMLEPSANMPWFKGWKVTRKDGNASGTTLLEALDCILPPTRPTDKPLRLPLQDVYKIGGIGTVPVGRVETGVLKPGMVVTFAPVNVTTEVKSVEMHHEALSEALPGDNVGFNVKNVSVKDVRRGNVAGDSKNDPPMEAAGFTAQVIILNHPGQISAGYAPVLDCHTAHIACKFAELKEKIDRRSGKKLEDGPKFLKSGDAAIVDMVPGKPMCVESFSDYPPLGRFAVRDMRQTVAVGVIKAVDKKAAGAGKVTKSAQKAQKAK
Sequence of HBA1 (P69905 2-142 limits assumed): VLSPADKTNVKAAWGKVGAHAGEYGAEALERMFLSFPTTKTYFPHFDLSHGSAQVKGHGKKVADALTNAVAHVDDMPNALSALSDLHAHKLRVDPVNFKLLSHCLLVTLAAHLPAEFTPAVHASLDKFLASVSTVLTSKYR
Sequence of ENO1 (P06733 2-434 limits assumed): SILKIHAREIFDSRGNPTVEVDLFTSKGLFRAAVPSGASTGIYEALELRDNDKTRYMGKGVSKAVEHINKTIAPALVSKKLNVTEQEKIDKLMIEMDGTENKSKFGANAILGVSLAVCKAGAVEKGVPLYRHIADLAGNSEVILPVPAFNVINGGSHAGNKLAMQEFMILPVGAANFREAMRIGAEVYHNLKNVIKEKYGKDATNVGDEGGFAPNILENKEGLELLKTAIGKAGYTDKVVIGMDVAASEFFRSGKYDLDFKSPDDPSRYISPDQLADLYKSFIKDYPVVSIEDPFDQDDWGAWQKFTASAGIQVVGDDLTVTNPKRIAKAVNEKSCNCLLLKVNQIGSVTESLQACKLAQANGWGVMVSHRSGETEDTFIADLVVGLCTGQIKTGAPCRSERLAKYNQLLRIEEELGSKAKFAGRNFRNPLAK
Sequence of LYZ (P61626 19-148 limits assumed): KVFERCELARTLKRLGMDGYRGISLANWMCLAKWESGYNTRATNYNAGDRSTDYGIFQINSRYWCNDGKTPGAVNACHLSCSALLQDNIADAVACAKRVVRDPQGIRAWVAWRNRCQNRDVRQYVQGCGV
Sequence of PPIA (P62937 2-165 limits assumed): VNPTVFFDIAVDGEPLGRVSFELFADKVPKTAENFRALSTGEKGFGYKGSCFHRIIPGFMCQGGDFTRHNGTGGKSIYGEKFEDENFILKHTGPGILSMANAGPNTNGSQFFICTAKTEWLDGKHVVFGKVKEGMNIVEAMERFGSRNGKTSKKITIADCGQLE
Sequence of TPI1 (P60174 2-249 limits assumed): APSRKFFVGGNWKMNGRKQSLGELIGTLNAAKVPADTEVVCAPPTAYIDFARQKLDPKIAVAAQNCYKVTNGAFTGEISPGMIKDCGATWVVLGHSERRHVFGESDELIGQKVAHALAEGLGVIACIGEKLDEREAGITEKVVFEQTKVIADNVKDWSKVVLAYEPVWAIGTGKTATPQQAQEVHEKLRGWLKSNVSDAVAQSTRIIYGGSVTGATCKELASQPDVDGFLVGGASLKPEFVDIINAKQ
Sequence of STRAP (Q9Y3F4 whole entry): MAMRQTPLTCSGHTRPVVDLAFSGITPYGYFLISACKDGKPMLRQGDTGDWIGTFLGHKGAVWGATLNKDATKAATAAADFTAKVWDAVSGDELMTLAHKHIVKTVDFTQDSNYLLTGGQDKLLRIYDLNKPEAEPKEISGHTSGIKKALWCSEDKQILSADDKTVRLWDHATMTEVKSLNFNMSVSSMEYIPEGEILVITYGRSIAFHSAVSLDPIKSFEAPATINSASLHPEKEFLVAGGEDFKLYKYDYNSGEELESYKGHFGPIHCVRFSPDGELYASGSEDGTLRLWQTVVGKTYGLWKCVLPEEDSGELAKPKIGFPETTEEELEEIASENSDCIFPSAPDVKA
Sequence of LTF (P02788 20-710 limits assumed): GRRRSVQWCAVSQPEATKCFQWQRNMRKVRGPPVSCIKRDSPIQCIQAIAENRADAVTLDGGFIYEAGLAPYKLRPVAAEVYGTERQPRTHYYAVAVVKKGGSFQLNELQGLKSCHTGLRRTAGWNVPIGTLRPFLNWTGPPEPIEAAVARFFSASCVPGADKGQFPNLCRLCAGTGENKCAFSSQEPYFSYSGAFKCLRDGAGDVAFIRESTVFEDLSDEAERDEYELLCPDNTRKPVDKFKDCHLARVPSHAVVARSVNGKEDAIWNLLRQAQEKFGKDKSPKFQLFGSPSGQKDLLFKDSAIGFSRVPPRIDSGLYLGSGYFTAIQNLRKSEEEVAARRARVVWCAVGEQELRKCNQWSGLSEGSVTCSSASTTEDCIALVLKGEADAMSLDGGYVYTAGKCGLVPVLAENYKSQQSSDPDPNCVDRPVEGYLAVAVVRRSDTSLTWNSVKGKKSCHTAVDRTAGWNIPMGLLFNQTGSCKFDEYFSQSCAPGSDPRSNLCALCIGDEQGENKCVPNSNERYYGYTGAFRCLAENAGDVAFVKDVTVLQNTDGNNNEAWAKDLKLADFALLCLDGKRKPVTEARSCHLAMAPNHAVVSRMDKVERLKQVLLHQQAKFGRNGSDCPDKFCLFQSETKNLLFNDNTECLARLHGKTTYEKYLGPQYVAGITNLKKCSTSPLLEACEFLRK
Sequence of S100A8 (P05109 whole entry): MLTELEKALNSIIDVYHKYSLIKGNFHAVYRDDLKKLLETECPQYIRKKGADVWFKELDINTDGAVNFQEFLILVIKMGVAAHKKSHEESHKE

“IgG control (Millipore Sigma 12-371) (antibody)” showed a co-IP mass spectrometry count [1] of 5, a co-IP mass spectrometry count [2] of 2 and a co-IP mass spectrometry count [3] of 2. The co-IP mass spectrometry count [4] was 0, the co-IP mass spectrometry count [5] was 2 and the co-IP mass spectrometry count [6] was 0. It also gave a co-IP mass spectrometry count [7] of 5, a co-IP mass spectrometry count [8] of 2 and a co-IP mass spectrometry count [9] of 0. It also gave a co-IP mass spectrometry count [10] of 3, a co-IP mass spectrometry count [11] of 2 and a co-IP mass spectrometry count [12] of 0. It also gave a co-IP mass spectrometry count [13] of 0, a co-IP mass spectrometry count [14] of 0 and a co-IP mass spectrometry count [15] of 3. For the same substance, the co-IP mass spectrometry count [16] was 5, the co-IP mass spectrometry count [17] was 0 and the co-IP mass spectrometry count [18] was 0. For the same substance, the co-IP mass spectrometry count [19] was 0, the co-IP mass spectrometry count [20] was 0 and the co-IP mass spectrometry count [21] was 0. It also gave a co-IP mass spectrometry count [22] of 0, a co-IP mass spectrometry count [23] of 9 and a co-IP mass spectrometry count [24] of 2. It also gave a co-IP mass spectrometry count [25] of 5, a co-IP mass spectrometry count [26] of 5 and a co-IP mass spectrometry count [27] of 0. It also gave a co-IP mass spectrometry count [28] of 5, a co-IP mass spectrometry count [29] of 0 and a co-IP mass spectrometry count [30] of 0. For the same substance, the co-IP mass spectrometry count [31] was 0, the co-IP mass spectrometry count [32] was 7 and the co-IP mass spectrometry count [33] was 0. For the same substance, the co-IP mass spectrometry count [34] was 0.
